Numbering of substitutions follows the chain as printed.

First the molecules themselves.
T1: human KLK14 (Homo sapiens, UniProt Q9P0G3)
T1 construct: His tag (C); FLAG (Gly-DYKDDDDK before the His tag); made in house; host or cells: Expi293F cells
T1 sequence (Q9P0G3 25-251): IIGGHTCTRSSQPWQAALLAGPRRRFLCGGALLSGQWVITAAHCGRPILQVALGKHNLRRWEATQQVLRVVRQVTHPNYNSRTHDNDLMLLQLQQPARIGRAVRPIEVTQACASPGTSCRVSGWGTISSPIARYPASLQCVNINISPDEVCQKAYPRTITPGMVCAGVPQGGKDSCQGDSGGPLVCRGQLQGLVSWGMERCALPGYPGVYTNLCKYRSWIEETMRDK

T2: KLK5 (Homo sapiens, UniProt Q9Y337)
T2 construct: “Active KLK5” means active KLK5, which is composed of a domain having a protease activity; His tag (C); FLAG (Gly-DYKDDDDK before the His tag); made in house; host or cells: Expi293F cells
T2 sequence (Q9Y337 67-293): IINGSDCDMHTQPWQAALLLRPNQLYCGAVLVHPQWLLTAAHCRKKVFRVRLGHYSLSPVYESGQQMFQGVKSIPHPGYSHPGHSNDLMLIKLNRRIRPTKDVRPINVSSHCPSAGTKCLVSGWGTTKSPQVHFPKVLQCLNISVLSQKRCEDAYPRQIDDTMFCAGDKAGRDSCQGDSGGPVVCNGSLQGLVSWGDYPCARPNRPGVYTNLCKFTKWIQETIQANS

B1: K51005: KLK5/KLK7 inhibitory peptide (SPINK2 mutant), amino acid sequence SEQ ID NO: 24 (protein)
chain: GPQFGLFSKYRTPNCMQHARQGCHYDYDPVCGSDMSTYANECTLCMKIREGGHNIKIIRNGPCGG
B2: K51034: KLK5 inhibitory peptide (SPINK2 mutant), amino acid sequence SEQ ID NO: 14 (protein)
chain: GPQFGLFSKYRTPNCGRYTTGGCNKEYEPVCGSDMSTYANECTLCMKIREGGHNIKIIRNGPCGG
B3: K50016: KLK5 inhibitory peptide (SPINK2 mutant), amino acid sequence SEQ ID NO: 12 (protein)
chain: GPQFGLFSKYRTPNCSQWQYSSCDRVYDPVCGSDMSTYANECTLCMKIREGGHNIKIIRNGPCGG
B4: K50032: KLK5 inhibitory peptide (SPINK2 mutant), amino acid sequence SEQ ID NO: 6 (protein)
chain: B3 chain with S16L, Q17N, Q19T, Y20D, S21H, S22Q, D24E, V26D
B5: K50062: KLK5 inhibitory peptide (SPINK2 mutant), amino acid sequence SEQ ID NO: 16 (protein)
chain: B1 chain with M16Q, H18Y, A19R, R20E, Q21L, H24G, Y25R, D26Q
B6: K51069: KLK5/KLK14 inhibitory peptide (SPINK2 mutant), amino acid sequence SEQ ID NO: 30 (protein)
chain: B3 chain with W18V, Q19V, Y20E, S21T, S22Y, D24N, V26D
B7: K51028: KLK5/KLK7 inhibitory peptide (SPINK2 mutant), amino acid sequence SEQ ID NO: 22 (protein)
chain: B2 chain with G16Y, R17Q, T19R, T20S, G21K, N24T, K25H, E28D
B8: K51057: KLK5/KLK7 inhibitory peptide (SPINK2 mutant), amino acid sequence SEQ ID NO: 28 (protein)
chain: B2 chain with R17T, Y18M, T19Q, T20G, G21S, N24T, K25Y, E26H
B9: K50098: KLK5 inhibitory peptide (SPINK2 mutant), amino acid sequence SEQ ID NO: 20 (protein)
chain: B2 chain with G16T, R17S, Y18Q, T20L, G22S, N24S, K25R, E28D
B10: K50015: KLK5/KLK14 inhibitory peptide (SPINK2 mutant), amino acid sequence SEQ ID NO: 32 (protein)
chain: B2 chain with G16Y, R17D, Y18T, G21H, G22Y, N24S, K25R, E28D
B11: K50031: KLK5/KLK7 inhibitory peptide (SPINK2 mutant), amino acid sequence SEQ ID NO: 26 (protein)
chain: B2 chain with R17E, T19K, T20G, G21R, N24Y, K25Y, E26H, E28D
B12: K51072: KLK5 inhibitory peptide (SPINK2 mutant), amino acid sequence SEQ ID NO: 10 (protein)
chain: GPQFGLFSKYRTPNCQEDMTEYCARDFDPVCGSDMSTYANECTLCMKIREGGHNIKIIRNGPCGG
B13: K51090: KLK5 inhibitory peptide (SPINK2 mutant), amino acid sequence SEQ ID NO: 18 (protein)
chain: GPQFGLFSKYRTPNCDEIGKYGCGRSYDPVCGSDMSTYANECTLCMKIREGGHNIKIIRNGPCGG
B14: K50055: KLK5 inhibitory peptide (SPINK2 mutant), amino acid sequence SEQ ID NO: 8 (protein)
chain: B13 chain with D16A, E17N, I18T, G19M, Y21Q, G22D, G24T, S26E

The first experiment addresses T1, human KLK14. Briefly: Human KLK14 inhibitory activity, peptide substrate degradation. It counts as biochemical. As to conditions: KLK5 inhibitory peptide; hKLK14 0.2 μg/mL, substrate 100 μM. How it is done:
The substrate peptide was dissolved in DMSO to 10 mM and diluted with an assay buffer (50 mM Tris-HCl, 150 mM NaCl, pH 8.0) for use. 25 μL each of human/mouse KLK5, human/mouse KLK7, or human/mouse KLK14 and the inhibitory peptide diluted with the assay buffer were mixed, followed by a reaction at 37° C. for 20 minutes. Thereafter, 50 μL of a substrate diluted with the assay buffer was added thereto, and the fluorescence signal was measured using Enspire (PerkinElmer). The combinations of the enzyme and the substrate used were as follows.
Evaluation of Human KLK14 inhibitory activity: hKLK14 with a final concentration of 0.2 μg/mL, a substrate peptide Boc-Val-Pro-Arg-AMC with a final concentration of 100 μM (R&D Systems, Inc.), and a fluorescence signal with excitation at 380 nm/emission at 460 nm
The average value of three independent experiments was used to calculate the IC50 value.
According to the method described in Example 3-1, the inhibitory activities of each KLK5 inhibitory peptide Fc fusion against human/mouse KLK5, human/mouse KLK7, and human/mouse KLK14 were evaluated. […] The average value of three independent experiments was used to calculate the IC50 value.
For the molecule B1, the half-maximal inhibitory concentration (IC50) was above 1000 nM.

The next experiment addresses T2, KLK5. Description: X-ray crystal structure analysis of KLK5/KLK5 inhibitory peptide complex. As to conditions: resolution 1.8 Å. How it is done: According to the methods described in (1-2) and (2-2), KLK5 inhibitory peptides K51034 and KLK5 having the amino acid sequences shown by the SEQ ID numbers were prepared. After mixing the two under conditions of 50 mM Tris-HCl, 150 mM NaCl, and pH 8.0, a complex was isolated and purified by gel filtration chromatography (Superdex 200 10/300 GL).
The complex solution prepared in (4-1) was concentrated to 12 mg/mL, thereafter mixed with a reservoir solution (0.2 M Magnesium Chloride hexahydrate, 20% PEG3350) at a ratio of 1:1, and crystallized by a vapor diffusion method. The obtained cubic single crystal was immersed in a reservoir solution containing 20% glycerol and thereafter frozen in liquid nitrogen. The frozen crystals were irradiated with X-rays in a cryo-stream to obtain a diffraction image (Hypixel 6000HE/MicroMax007). Scaling data with a maximum resolution of 1.7 Å was obtained by analysis using CrysAlisPro. The phase was determined by the molecular replacement method using KLK5 alone (PDB ID: 2PSX) and SPINK2 alone (PDB ID: 2JXD) as templates. After structural refinement, complex crystals of KLK5/the peptide K51034 were determined at a resolution of 1.8 Å. One molecule each of KLK5 and SPINK2 was contained in a unit cell. […]
On to B2, for which the “binding site on KLK5 in complex crystal” value is given as “bound to a region containing the KLK5 enzyme's active site”.

In another experiment the target is T2, KLK5. Briefly: KLK5 binding activity of KLK5 inhibitory peptide, surface plasmon resonance (biotinylated KLK5 captured, peptide as analyte). As to conditions: BIAcore T 200, single cycle kinetics. How it is done: In order to measure the binding affinity of the KLK5 inhibitory peptides, surface plasmon resonance analysis was conducted using BIAcore T 200 (GE healthcare). A complementary strand of DNA of a streptavidin conjugate was captured by hybridization on Sensor Chip CAP (GE healthcare) on which single-stranded DNA immobilized. Next, KLK5 biotinylated using EZ-Link NHS-PEG4-Biotin (Thermo Fisher Scientific) was captured at a flow rate of 10 μL/min to immobilize about 10 RU. Thereafter, the KLK5 inhibitory peptide, serially diluted 2-fold with HBS-EP (0.625 to 10 nM), was added thereto as an analyte at a flow rate of 30 μL/min. In the BIAcore T 200 Evaluation software (version 2.0), kon and koff were calculated by analysis using Single cycle kinetics in a simple one-to-one Langmuir binding model. The dissociation constant KD was calculated as a ratio of koff/kon. Further, multiple KLK5 inhibitory peptides were measured by regenerating Sensor Chip CAP using a Regeneration buffer attached to a Biotin CAPture Kit (GE healthcare) and repeatedly capturing biotinylated KLK5.
On the technique in general: In SPR one partner is held on a chip, and binding of the other changes the refractive index at the surface.
Turning to B3, the “Koff” value amounted to 0.00029 s⁻¹. As to B4, the “Koff” value is 0.00027 s⁻¹. With B1, the “Koff” value stood at 0.0012 s⁻¹. B5: the “Koff” value is 2.9e-06 s⁻¹. For B6, the “Koff” value turned out to be 1e-06 s⁻¹.

Turning to B2, the “Koff” value turned out to be 3.5e-05 s⁻¹. For B7, the “Koff” value was 2e-05 s⁻¹.

Consider B8, for which the “Koff” value was found to be 0.0015 s⁻¹.

With B9, the “Koff” value worked out at 1.8e-05 s⁻¹. As to B10, the “Koff” value was 1e-06 s⁻¹. Consider B11, for which the “Koff” value is 5e-05 s⁻¹. As to B12, the “Koff” value was 2.2e-05 s⁻¹. On to B13, for which the “Koff” value worked out at 5.7e-05 s⁻¹. For B14, the “Koff” value was 1.8e-05 s⁻¹.

By IC50 is commonly meant the concentration that gives 50% inhibition.
